This note sets out measurements from doi:10.1101/2025.10.30.685675v2.

What is called Km is the concentration of substrate that gives half-maximal velocity.

The test system of this data set is CCCC(=O)Oc1ccc([N+](=O)[O-])cc1. The data set can be described thus: purified protein. As to conditions: pH 8.0; 25.0 °C.

As to SfDLH (Solimonas fluminis), the Michaelis-Menten constant (Km) amounted to 160 µM.
